We go through one substance from paper PMC6073757.

In general, stoichiometry N refers to a count of units in the complex or per binding partner.

Values joined by “and” are separate entries in the source; they are usually repeats but may differ in a detail not shown here. Equal values may be shown once.

In assay [1] the target is LrtA protein of Synechocystis sp. PCC 6803 (Synechocystis sp. PCC 6803). Kind of assay: cross-linking; glutaraldehyde 1% final, 97 uM LrtA (protomer units), 50 mM Tris pH 8.0, 0.5 M NaCl, room temperature; aliquots on 12% SDS-PAGE.
For assay [2] the target is unchanged. The experiment in a line: SEC; Superose 12 10/300 GL, 50 mM Tris pH 8.0, 0.7 M NaCl, 97 uM LrtA (protomer units) loaded in 100 uL, 25 °C; calibrated with blue dextran, albumin, RNase A. (In general: In gel filtration, larger molecules generally elute earlier.)

As for “LrtA protein of Synechocystis sp. PCC 6803 (natural protein)”, the stoichiometry N was 2 in assay [1]; 6 and 12 in assay [2].
